{
  "source": "patent US20170327594A1",
  "about": "(UNIVERSIT T STUTTGART, published 2017)",
  "binders": {"B1": {"name": "Anti-CEAxCD3 scDb-EHD2 (bispecific antibody)", "chain": "DAAQPAMAQVKLQQSGAELVRSGTSVKLSCTASGFNIKDSYMHWLRQGPEQGLEWIGWIDPENGDTEYAPKFQGKATFTTDTSSNTAYLQLSSLTSEDTAVYYCNEGTPTGPYYFDYWGQGTTVTVSSGGGGSDIQMTQSPSSLSASVGDRVTITCRASQDIRNYLNWYQQKPGKAPKLLIYYTSRLESGVPSRFSGSGSGTDYTLTISSLQPEDFATYYCQQGNTLPWTFGQGTKVEIKRGGGGSGGRASGGGGSEVQLVESGGGLVQPGGSLRLSCAASGYSFTGYTMNWVRQAPGKGLEWVALINPYKGVSTYNQKFKDRFTISVDKSKNTAYLQMNSLRAEDTAVYYCARSGYYGDSDWYFDVWGQGTLVTVSSGGGGSDIELTQSPAIMSASPGEKVTITCSASSSVSYMHWFQQKPGTSPKLWIYSTSNLASGVPARFSGSGSGTSYSLTISRMEAEDAATYYCQQRSSYPLTFGAGTKLELKRGSLGGSGGDFTPPTVKILQSSCDGGGHFPPTIQLLCLVSGYTPGTINITWLEDGQVMDVDLSTASTTQEGELASTQSELTLSQKHWLSDRTYTCQVTYQGHTFEDSTKKCADSNGGGSGGGTGSEFAAAHHHHHH", "notes": "Homodimer: scDb against CEA and human CD3 at the N-terminus of EHD2, His6; also called bispecific single-chain diabody (scDb)-EHD2 fusion protein"}, "B2": {"name": "MHD2-scTNFR2 (ligand)", "chain": "DAAQPAGGGAAAHHHHHHGGTGGGGSGGKLGGSGGAELPPKVSVFVPPRDGFFGNPRKSKLICQATGFSPRQIQVSWLREGKQVGSGVTTDQVQAEAKESGPTTYKVTSTLTIKESDWLGQSMFTCRVDHRGLTFQQNASSMCVPDGGGSGGGTGSEFLASSRTPSDKPVAHVVANPQAEGQLQWLNRRANALLANGVELRDNQLVVPSEGLYLIYSQVLFKGQGCPSTHVLLTHTISRIAVSYQTKVNLLSAIKSPCQRETPEGAEAKPWYEPIYLGGVFQLEKGDRLSAEINRPDYLNFRESGQVYFGIIALGGGGSSSRTPSDKPVAHVVANPQAEGQLQWLNRRANALLANGVELRDNQLVVPSEGLYLIYSQVLFKGQGCPSTHVLLTHTISRIAVSYQTKVNLLSAIKSPCQRETPEGAEAKPWYEPIYLGGVFQLEKGDRLSAEINRPDYLNFRESGQVYFGIIALGGGGSSSRTPSDKPVAHVVANPQAEGQLQWLNRRANALLANGVELRDNQLVVPSEGLYLIYSQVLFKGQGCPSTHVLLTHTISRIAVSYQTKVNLLSAIKSPCQRETPEGAEAKPWYEPIYLGGVFQLEKGDRLSAEINRPDYLNFRESGQVYFGIIAL"}, "B3": {"name": "EHD2-scTRAIL (ligand)", "chain": "DYKDDDDKGGGGSAAQPADFTPPTVKILQSSCDGGGHFPPTIQLLCLVSGYTPGTINITWLEDGQVMDVDLSTASTTQEGELASTQSELTLSQKHWLSDRTYTCQVTYQGHTFEDSTKKCADSNGGSGGEFTRGTSEETISTVQEKQQNISPLVRERGPQRVAAHITGTRGRSNTLSSPNSKNEKALGRKINSWESSRSGHSFLSNLHLRNGELVIHEKGFYYIYSQTYFRFQEEIKENTKNDKQMVQYIYKYTSYPDPILLMKSARNSCWSKDAEYGLYSIYQGGIFELKENDRIFVSVTNEHLIDMDHEASFFGAFLVGGGGSGGGSTSEETISTVQEKQQNISPLVRERGPQRVAAHITGTRGRSNTLSSPNSKNEKALGRKINSWESSRSGHSFLSNLHLRNGELVIHEKGFYYIYSQTYFRFQEEIKENTKNDKQMVQYIYKYTSYPDPILLMKSARNSCWSKDAEYGLYSIYQGGIFELKENDRIFVSVTNEHLIDMDHEASFFGAFLVGGGGSGGGSTSEETISTVQEKQQNISPLVRERGPQRVAAHITGTRGRSNTLSSPNSKNEKALGRKINSWESSRSGHSFLSNLHLRNGELVIHEKGFYYIYSQTYFRFQEEIKENTKNDKQMVQYIYKYTSYPDPILLMKSARNSCWSKDAEYGLYSIYQGGIFELKENDRIFVSVTNEHLIDMDHEASFFGAFLVG", "notes": "Bivalent homodimer of single-chain TRAIL at the C-terminus of EHD2, FLAG-tagged"}, "B4": {"name": "EHD2-scTNFR2-L28aa (ligand)", "chain": "DAAQPAGGGAAAHHHHHHGGTGGGGSGGKLGGSGGDFTPPTVKILQSSCDGGGHFPPTIQLLCLVSGYTPGTINITWLEDGQVMDVDLSTASTTQEGELASTQSELTLSQKHWLSDRTYTCQVTYQGHTFEDSTKKCADSNGGGSGGGSGGGSGGGSGGGSGGSEFLASSRTPSDKPVAHVVANPQAEGQLQWLNRRANALLANGVELRDNQLVVPSEGLYLIYSQVLFKGQGCPSTHVLLTHTISRIAVSYQTKVNLLSAIKSPCQRETPEGAEAKPWYEPIYLGGVFQLEKGDRLSAEINRPDYLNFRESGQVYFGIIALGGGGSSSRTPSDKPVAHVVANPQAEGQLQWLNRRANALLANGVELRDNQLVVPSEGLYLIYSQVLFKGQGCPSTHVLLTHTISRIAVSYQTKVNLLSAIKSPCQRETPEGAEAKPWYEPIYLGGVFQLEKGDRLSAEINRPDYLNFRESGQVYFGIIALGGGGSSSRTPSDKPVAHVVANPQAEGQLQWLNRRANALLANGVELRDNQLVVPSEGLYLIYSQVLFKGQGCPSTHVLLTHTISRIAVSYQTKVNLLSAIKSPCQRETPEGAEAKPWYEPIYLGGVFQLEKGDRLSAEINRPDYLNFRESGQVYFGIIAL", "notes": "Dimer of the TNFR2-selective single-chain TNF mutant (D143N/A145R) fused to EHD2, 28 aa linker; also called EHD2-scTNFR2 with a 28 aa linker between EHD2 and scTNFR2"}, "B5": {"name": "EHD2-scTNFR2-L16aa (ligand)", "chain": "DAAQPAGGGAAAHHHHHHGGTGGGGSGGKLGGSGGDFTPPTVKILQSSCDGGGHFPPTIQLLCLVSGYTPGTINITWLEDGQVMDVDLSTASTTQEGELASTQSELTLSQKHWLSDRTYTCQVTYQGHTFEDSTKKCADSNGGGSGGGTGSEFLASSRTPSDKPVAHVVANPQAEGQLQWLNRRANALLANGVELRDNQLVVPSEGLYLIYSQVLFKGQGCPSTHVLLTHTISRIAVSYQTKVNLLSAIKSPCQRETPEGAEAKPWYEPIYLGGVFQLEKGDRLSAEINRPDYLNFRESGQVYFGIIALGGGGSSSRTPSDKPVAHVVANPQAEGQLQWLNRRANALLANGVELRDNQLVVPSEGLYLIYSQVLFKGQGCPSTHVLLTHTISRIAVSYQTKVNLLSAIKSPCQRETPEGAEAKPWYEPIYLGGVFQLEKGDRLSAEINRPDYLNFRESGQVYFGIIALGGGGSSSRTPSDKPVAHVVANPQAEGQLQWLNRRANALLANGVELRDNQLVVPSEGLYLIYSQVLFKGQGCPSTHVLLTHTISRIAVSYQTKVNLLSAIKSPCQRETPEGAEAKPWYEPIYLGGVFQLEKGDRLSAEINRPDYLNFRESGQVYFGIIAL", "notes": "Dimer of the TNFR2-selective single-chain TNF mutant (D143N/A145R) fused to EHD2, 16 aa linker; also called EHD2-scTNFR2 with a 16 aa linker between EHD2 and scTNFR2"}, "B6": {"name": "Anti-CEA scFv-EHD2 (scFv)", "chain": "DAAQPAMAQVKLQQSGAELVRSGTSVKLSCTASGFNIKDSYMHWLRQGPEQGLEWIGWIDPENGDTEYAPKFQGKATFTTDTSSNTAYLQLSSLTSEDTAVYYCNEGTPTGPYYFDYWGQGTTVTVSSGGGGSGGGGSGGGGSDIELTQSPAIMSASPGEKVTITCSASSSVSYMHWFQQKPGTSPKLWIYSTSNLASGVPARFSGSGSGTSYSLTISRMEAEDAATYYCQQRSSYPLTFGAGTKLELKRGSLGGSGGDFTPPTVKILQSSCDGGGHFPPTIQLLCLVSGYTPGTINITWLEDGQVMDVDLSTASTTQEGELASTQSELTLSQKHWLSDRTYTCQVTYQGHTFEDSTKKCADSNGGGSGGGTGSEFAAAHHHHHH", "notes": "Bivalent homodimer, His6; also called scFv-EHD2 fusion protein directed against CEA"}},
  "key": {"[1]": {"target": "T1, CEA (UniProt P06731 35-685, limits assumed)", "T1 construct": "also called immobilized CEA; carcinoembryonic antigen", "T1 sequence (looked up)": "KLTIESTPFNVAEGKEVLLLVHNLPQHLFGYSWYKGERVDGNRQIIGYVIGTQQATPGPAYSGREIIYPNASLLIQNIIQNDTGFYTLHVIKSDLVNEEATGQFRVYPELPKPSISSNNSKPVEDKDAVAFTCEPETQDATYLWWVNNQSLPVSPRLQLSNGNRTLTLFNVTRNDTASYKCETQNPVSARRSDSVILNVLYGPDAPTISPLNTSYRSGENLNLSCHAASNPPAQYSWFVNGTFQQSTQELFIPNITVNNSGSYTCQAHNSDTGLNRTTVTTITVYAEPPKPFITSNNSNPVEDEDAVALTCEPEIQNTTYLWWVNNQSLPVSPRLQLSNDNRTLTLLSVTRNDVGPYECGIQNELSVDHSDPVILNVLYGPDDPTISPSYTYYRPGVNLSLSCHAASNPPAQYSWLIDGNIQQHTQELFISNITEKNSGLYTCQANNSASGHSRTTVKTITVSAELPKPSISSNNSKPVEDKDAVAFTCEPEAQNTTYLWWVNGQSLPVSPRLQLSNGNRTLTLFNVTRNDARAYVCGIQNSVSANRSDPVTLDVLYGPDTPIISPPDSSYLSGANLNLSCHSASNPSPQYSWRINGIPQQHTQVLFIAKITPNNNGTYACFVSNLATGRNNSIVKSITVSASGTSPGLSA", "assay": "ELISA on immobilized CEA", "excerpt": "Bound antibodies were detected with an HRP-conjugated anti-His-tag antibody.\nA bispecific single-chain diabody (scDb)-EHD2 fusion protein was generated by fusing a scDb directed against CEA and human CD3 to the N-terminus of the EHD2 (FIG. 27a, b). The construct was cloned into mammalian expression vector pSecTagA and produced in stably transfected HEK293 cells. Protein was purified from the cell culture supernatant by immobilized metal affinity chromatography."}, "[2]": {"target": "T2, TNFR2-Fc fusion protein (Enbrel) (UniProt P20333 23-257)", "T2 construct": "Commercial product Enbrel, coated at 1 ug/ml; not shown: Fc part of Enbrel", "T2 sequence (looked up)": "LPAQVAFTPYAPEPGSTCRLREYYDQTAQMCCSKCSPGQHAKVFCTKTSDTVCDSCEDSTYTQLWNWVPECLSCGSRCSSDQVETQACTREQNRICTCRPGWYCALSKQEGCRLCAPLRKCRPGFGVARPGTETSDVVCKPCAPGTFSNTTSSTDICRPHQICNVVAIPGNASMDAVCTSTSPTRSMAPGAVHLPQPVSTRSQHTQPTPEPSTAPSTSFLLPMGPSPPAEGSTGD", "assay": "ELISA on coated TNFR2-Fc (Enbrel)", "protocol": "FIG. 36: a-c) Purified TNF variants (a: MHD2-scTNFR2, b: EHD2-scTNFR2 with a 16 aa linker between EHD2 and scTNFR2 as well as c: EHD2-scTNFR2 with a 28 aa linker between EHD2 and scTNFR2) were analyzed by 8% SDS-PAGE under reducing (+2-ME) or non-reducing (−2-ME) conditions and stained with Coomassie. d) Binding studies with TNFR2-Fc fusion protein. Plates were coated with 1 μg/ml TNFR2-Fc fusion protein (Enbrel). TNF fusion proteins were incubated for 1 h at RT and bound TNF fusion proteins were detected using HRP-conjugated anti-TNF antibodies and TMB substrate (n=2)."}, "[3]": {"target": "T3, EGFR-Fc fusion protein (UniProt P00533 25-645, limits assumed)", "T3 construct": "extracellular domain; also called Fc fusion protein of the extracellular region of EGFR; immobilized EGFR; not shown: Fc part", "assay": "ELISA on immobilized EGFR-Fc"}, "[4]": {"target": "T4, HER2-Fc fusion protein (UniProt P04626 23-652, limits assumed)", "T4 construct": "extracellular domain; also called Fc fusion protein of the extracellular region of HER2; not shown: Fc part", "assay": "ELISA on immobilized HER2-Fc"}, "[5]": {"target": "T5, recombinant TRAIL-R1 (receptor-Fc fusion protein) (UniProt O00220 24-239, limits assumed)", "T5 construct": "also called TRAIL receptor 1; not shown: Fc part", "assay": "ELISA on recombinant receptor-Fc"}},
  "data": [
    {"binder": "B1", "values": [
      {"measurement": "binding result", "setting": "[1]", "result": "binds"}
    ]},
    {"binder": "B2", "values": [
      {"measurement": "binding result", "setting": "[2]", "result": "binds"}
    ]},
    {"binder": "B3", "values": [
      {"measurement": "binding result", "setting": "[3]", "result": "no binding"},
      {"measurement": "binding result", "setting": "[4]", "result": "no binding"},
      {"measurement": "binding result", "setting": "[5]", "result": "binds"}
    ]},
    {"binder": "B4", "values": [
      {"measurement": "binding result", "setting": "[2]", "result": "binds"}
    ]},
    {"binder": "B5", "values": [
      {"measurement": "binding result", "setting": "[2]", "result": "binds"}
    ]},
    {"binder": "B6", "values": [
      {"measurement": "binding result", "setting": "[1]", "result": "binds"}
    ]}
  ]
}
